Assay results reported in the supplement of paper PMC12764529.
± gives the half width of the 95% confidence interval.

Assays:
[1] = folding stability dG unfold from chymotrypsin proteolysis; higher = more stable
Method in brief: (§1)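 Unfolding free energy was derived, per protease or combined, against a sequence-predicted unfolded-state K50 and a shared folded-state K50, starting from K50 inferred by Bayesian fitting of sequencing counts. Digestion with trypsin and chymotrypsin was carried out on designed mini-proteins under 80 residues without cysteine in a PA-tagged cDNA display construct. Only designs with AlphaFold2 dimer inter-PAE above 15 were kept.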

[2] = folding stability dG unfold (combined trypsin and chymotrypsin); higher = more stable
Method in brief: as §1

[3] = folding stability dG unfold from trypsin proteolysis; higher = more stable
Method in brief: as §1

Sequence	folding stability dG unfold [1] [kcal/mol]	folding stability dG unfold [2] [kcal/mol]	folding stability dG unfold [3] [kcal/mol]
SAGGLPGLSAEELARRLAERLREALAAAGYTVEIELTVEITVTDEDGRTRTFTFTLRIRVEPPPPPPSAGGS [r16_550_TrROS_Hall]	5.15 ± 0.074	4.8 ± 0.12	4.05 ± 0.069
SAGGSAGGPEITIIIGNAGPIEVALKTAKEIKKILEEKGYPNVKIPILIIPFGSPEKLKEALGGSAGGSAGG [r6_476_TrMRF]	-0.0243 ± 0.32	0.383 ± 0.29	0.0997 ± 0.1
SAGGSGMMLEEGVGVDPTTGELHRFTYLREPERPPVEVTVTTTTVVYTTPDGTTVTVTTTTTLEGGSAGGSA [r2_326_JUSTAS]	0.786 ± 0.27	0.789 ± 0.13	0.671 ± 0.047
SAGGSAGGSAGPPNQRHEYEIKLTIYDPDNGKKFTIKIPMESPWDMPNFMRKLADNGYIKSAGGSAGGSAGG [r11_668_TrROS]	1.38 ± 0.11	1.12 ± 0.11	0.557 ± 0.14
SAGGSGEVRPLELEFTLPNGAKIKITLHVYPDGTVKVEARIEFGGEYLELRFEFEGEKVPLDFPDFGSAGGS [r16_523_TrMRF]	3.73 ± 0.11	3.73 ± 0.2	3.58 ± 0.13
SMLVLRLPDNRLAVLEYDPETKRLRVLVVDPESGRLTVAEIHPETGEITVDEYTLLPNGEPLPHRFELPLSA [r9_1073_TrMRF]	2.54 ± 0.048	2.73 ± 0.058	2.84 ± 0.099
SAGGSAGGSAGMTLIYKDPETGKYYIVDFEESGPERVFEVDSLDEAEEIAEKLGRKLDPLSAGGSAGGSAGG [r11_1049_TrMRF]	2.591 ± 0.018	2.31 ± 0.055	1.39 ± 0.029
SAGGMLPLVVKVKTPDGEEYTFVVAYNPETSELWLPLPKEPTWRNVPLTEASSIPEFQIVEARPLALESAGG [r13_994_TrMRF]	0.943 ± 0.064	0.761 ± 0.087	0.348 ± 0.056
SIKELAKELPGFQVSVEPDDPGQVKITIMVPDDPQQQKRFQNKIIELANDIQGEHGMPVTIEIQPVPPGDSA [r9_1099_TrROS]	0.0536 ± 0.096	-0.00283 ± 0.081	-0.238 ± 0.056
SAGGSAGGSAGGPEVTLRLRLEVEVRVVVLKDGKLEEKTFRFELEVEVRFEPGMSLEELSAGGSAGGSAGGS [r10_633_TrROS_Hall]	4.09 ± 0.086	3.91 ± 0.075	3.23 ± 0.15
SAGGSAGGSAGGGIKIKIISVKPLPDGSVLVKAKIIFPDGKEKEILILFNKNGEIKIFEKSAGGSAGGSAGG [r7_860_TrMRF]	4.03 ± 0.069	3.71 ± 0.087	3.04 ± 0.11
SAGGEVIELKIKFKTPEQREKLKEIAKKLNAEVVEEKDGEVIIRFKTPEQAERALKEAEKLGAEVELSAGGS [r16_88_TrROS_Hall]	4.47 ± 0.097	4.48 ± 0.17	4.29 ± 0.26
SAGGSASVVLPNATVEELKEAVEKGAKEIVVVSPDPARAATIKAEIEKLHDTPVKVLTPEEAAALESAGGSA [r15_243_JUSTAS]	1.32 ± 0.035	0.907 ± 0.055	-0.205 ± 0.037
SAGGSMTTPPTGEVQVFIDRKTDKWTIRIVDPNAPPTTEEVESEEEAEKVIAELEAKGYKVDTVEPLPSAGG [r13_727_JUSTAS]	1.14 ± 0.5	0.913 ± 0.29	0.658 ± 0.16
SAGGKIKIQFNGQEFTITEFEIIEPQPNKGGGPYYRIRIKFPNGPMEIMIPPNMPPEIKPGDTFTIASAGGS [r16_638_TrROS]	1.96 ± 0.032	1.93 ± 0.066	1.797 ± 0.015
SAGGSAGGSAGMKTSVTTPVTLPDGTPAVVTKYDGEVEIIDTGDGTSKVVPLSEVPPKLLSAGGSAGGSAGG [r11_155_JUSTAS]	0.422 ± 0.076	0.604 ± 0.07	0.678 ± 0.035
SAGGSMTISLDETIDVPEDVGVTFTFADDTVATAYFDPSEGKVRVVVYDPNKPGTLLGEFTLPVLPSAGGSA [r2_266_TrMRF]	1.41 ± 0.07	1.29 ± 0.11	0.976 ± 0.017
